Source: publication PMC3293552

Molecular target: Fluorescein-labeled ATS-FL Q150C variant (Plasmodium falciparum)
Assay: fluorescence polarisation

Question: How did the Kd turn out when “PFI1780w fragment spanning residues 80-280 (PHISTc-type domain) (domain or fragment)” was run?
Answer: Its Kd is 150 µM.
